Data: a protein production outcome set (Wang et al. 2014)

Experiment: label from the status in PepcDB records

Row | Sequence | protein production
1 | MLTHKTCQARKKMQVSFVIRDAEEKQHRNGVNALQLDANNGKLYSAGRDAIIRVWNTRTDSSEKYIQSMEHHNDWVNDIVLCCNGRNLISASCDTTVKVWNAQKGFCMSTLRTHRDYVQALAYAKDREQVASAGLDKAIFLWDVNTLTALTASNNTVTTSSLTGSKDSIYSLAMNPSGTVIVSGSTENILRIWDPRTCMRRMKLRGHTENVRCLVVSPDGNQVVSGSSDGTIKVWNLGQQRCVQTIHVHKEGVWSLLMSENFQYIISGSRDRNIIVTEMRNPSNKTLVCEEQAPVLSLGYNIDKTGVWATTWNSDIRCWKLPMYDRCTLNSSGGMDAQWTQGGTEVACIKGGAAIKECAVLNDKRYIITKDSQDQVVVYDVLRVVKKEQLGAVDFEAEVKKRNKQVYIPNWFTVDLKTGMPTIVLGQEEVDCFSAWVSIEAGLPECVDPTTEIKINYGKLLLEALLEYWTPPHSIPPNEMEPDMHGNGYFQVPKHTPVIFSEVGGRTVCRLLVRDAAGDSESTLLHETAPQWVTDVVIEKNIPKFLKIPFFLQPHPQMTKPERTKKDRLVANEFIQCRKVCEHVLEKVLNAETTPSGGNANNSLQNSQSDANSEGSQLPAEERIELWCNDVVVDPNMDLRTVRHFIWKQSTDLTFQYKTKQNFNYDGK | failed
2 | MDDVKDKLKGFMKKVNLSSSSGKFKGQGRVLGSSSSSSAPPVNPIQNRFNSSQAPNPTPRPKPNPNPLPEKPLSSSDQKISGSTRNPDHDPVRAPQDGFDPYGAFITSSNRSQNGYSLSMFECPICKNPFTSEEEVSVHVESCLGDTNGDESSFEKDNNDNDKSEMEKLVVVYLSGKPSESSIDVLLRLFKNIVKEPENAKFRKVRMSNAKIKEAIGDVAGGVELLELVGFELKEENDEIWAVMDVPSEEQSILINKVVGYLEKRKTESSGSSAQVMEPVAPKKIDRENGCFLVQIRVFFSVSENVASRIEVPDSFYSLSADEIKREADLRRKKIAESQLLIPRSYKEKQAKAARKRYKRSMIRVQFPDGVVLQGVFAPWEPTFALYEFVSSALKEPSLQFELLDPVLVKRRVIPHTPAPGQKPITLEDEELVPSALIRFRPIETDSLVFTGLRNELLEISEPLS | failed
3 | MVSANTKPLSEFKTGEFVQIEKIQLEGTMKRRLLDLGFIPGATIKVLQRSPLGDPVAYQVSNTTIALRKEESSLIFGVLIGDDFRLEHHHHHH | not failed
4 | MEASRFIEIGLLTRPHGLKGEVCVDYYADSPFLLEGTVYLKAGRAAPRPVKVQSMRMHKGRPLVIFEGVNDRTAAELLRGHVMLVPEDTLPELDEDEVYLFELEGISVVIDESGEHLGVIERIDTDAYQEIWVIRTPQGKEVLFPAAAPFVLDIDLDSRTARIAPPPGLLDIYLSD | failed
5 | EKIWPRDRSASRERSLSPRSDRRSVASSQPAKPTKVTLVKSRKNEEYGLRLASHIFVKEISQDSLAARDGNIQEGDVVLKINGTVTENMSLTDAKTLIERSKGKLKMVVQRDERATLLNVPDLSDSIHSANASERDDISEIQSLASDH | failed
6 | MAFRITSQLRPVGNQFGGSRRFATTVADGAKQTYNKFSIMGEFAPVAIIGGFVGLAVLMAGHSLKQQLMHAPAISTRKNRRAAVAEVDDPENCVSSADKFINKSWLRKVGQIQDKSKAILSDPTRPNPFTTPRNAETLNSVGVAPKGI | failed
7 | MDSQTGVTRRRLLLGLGSGLGLLGGGGAYVYWSLQGDSGEYTAPNSQPVVTTRGLLDSAEEPAAETEGAWSFDDASEVFLFVHGFSTDAETARDNAYTAQLALGEYTSAPVVAYSWDSDVEWEQAKDNAVANRTLLAQWLMEWAETDGRPVHVLAHSLGARVTGETLRVLAEQGATDVLASVSLLGGAIPYDSVVQGGRYGDAIEAVDAPVSNFYSQNDKVLSWVYRASDRTHAVGHAGTRDAGPLPDGYQDVNVTDLVADHYSYFEPGEGCLARVVAEIE | failed
8 | MKFKTRDLVLIPLFTAMTIIGAFIKIPVGVVPINLQFLFTALSGVLLGGALGAVSQILYVALGLIGLPVFTSGGGLSYIFTPTFGYLIGYILAAFIIGKITHSRKPKFTTIFFSCILGLIAVYFIGTTYLYIILNYVAGKNVSIIASIKLGVLMFIPGDIVKCIITALLGSRILPILNKTSLNN | failed
9 | MRSNYAKKLVAGTLVASMTITASMPLFADELATEIPSAGAAVIVEDYINNSGKETDIEKLLPTEATDSTATANETTKTENQTEKTQTSNTATSSEDKLFANIAITKVSGGAEDYVNVRKKPTTESKVVGKIYNNSGAKILEKTNNGWYKIVSGNCTGYIKSDFFVTGSSAKSRALDNGYVQAEAKDAIHVRAEASTNSKVVTNVYKNETYTIKKFDKTGEWIKVKIKAGVSGWISAQYANVNINMETAITRKIEKAKIKKEREAAKAAAKAAAEEEARKQAEQQEQQASNDNSQSSSDGTYSNSSNSSSRSNYSNSSSSSSSSSSSSSSSSSKKSHSSSSSSSSGSGTGAAIVAYAKQFLGNPYVYGGASLTNGTDCSGFTMSVYAHFGYGLSRSSYTQVNNGRAVSMSSLQPGDLLFYKYGGSTISHVAIYIGGGQIIHASTEETGIIISGMGSPCAARRIIG | failed
10 | MSLKHYSIQPANLEFNAEGTPVSRDFDDVYFSNDNGLEETRYVFLGGNQLEARFPEHPHPLFVVAESGFGTGLNFLTLWQAFDQFREAHPQAQLQRLHFISFEKFPLTRADLALAHQHWPELAPWAEQLQAQWPMPLPGCHRLLLDEGRVTLDLWFGDINELISQLDDSLNQKVDAWFLDGFAPAKNPDMWTQNLFNAMARLARPGGTLATFTSAGFVRRGLQEAGFTMQKRKGFGRKREMLCGVMEQTEGHHHHHH | not failed
11 | MVEKGKMVKISYDGYVDGKLFDTTNEELAKKEGIYNPAMIYGPVAIFAGEGQVLPGLDEAILEMDVGEEREVVLPPEKAFGKRDPSKIKLIPLSEFTKRGIKPIKGLTITIDGIPGKIVSINSGRVLVDFNHELAGKEVKYRIKIEEVVDDKKNIVKEIVKMYVPRLSDVKVTIRNGTVKIELPEFAPFIPNIQTAKMAIANEILKRLEDAEKVSFVETFERKKETKEENK | failed
12 | MPRRSALLGQPLFRLLAINLAIGVTIAALLLGGLLYLNPGHLRDLIFADDSPGTALGLLLFGFVVTFGSAAMGSAIMAMGSDLRGGGKGGRKLALPIEMIPGAKAIPVRAEHGARAVRRHGSL | failed
13 | EEPTIGDIYNGKVTSIMQFGCFVQLEGLRKRWEGLVHISELRREGRVANVADVVSKGQRVKVKVLSFTGTKTSLSMKDVDQETGEDLNPNRRRNLV | not failed
14 | MKALRAFAIVAASLLLATGAAAQVSLSPPSGPNPFPKPLEPEKPKPRPPAPAKAPATEAKDKAKKPGDKPDAKAAPEGGAATAEDPNVDLVYGAYQRGFYKTAFELAQKRAADNDAKAMTMLGELYANALGVKRDYKKAAEWYSRAADLGDREAMFALAMARMGGRGGPPNREEAAKWLAQAAKLGEPKAAYNLALLYLDGQTFPQDVKRAAELLRMAADAGNPEAQYALATFYKEGTGVTKSIEQSVRLLQAAALAGNVPAQVEYAIALYNGTGTPKNEPAAVALLRKAARANNPIAQNRLAHVLVSGQGAPRDINEAMKWHLIAKTAGKGDLQLDQTLAQMSAEDRAKAEEAARTWIGGGK | failed
15 | MLIENAVDFIENANIGIHTVSPEGIIKYANEHELTVLGYTEDEYVGHHVSEFQFDKSCLEQMMIKLAKFESFSNFPAMVCGKLKMKYILYNSSVYAEDGEFVHTRCFGNEISKSVYQACKVDYKKSLTNRVD | failed
16 | MKYTVYLFDFDYTLADSSRGIVTCFRSVLERHGYTGITDDMIKRTIGKTLEESFSILTGITDADQLESFRQEYSKEADIYMNANTILFPDTLPTLTHLKKQGIRIGIISTKYRFRILSFLRNHMPDDWFDIIIGGEDVTHHKPDPEGLLLAIDRLKACPEEVLYIGDSTVDAGTAAAAGVSFTGVTSGMTTAQEFQAYPYDRIISTLGQLISVPEDKSGCPL | not failed
17 | MVQIIFDSKTGNVQRFVNKTGFQQIRKVDEMDHVDTPFVLVTYTTNFGQVPASTQSFLEKYAHLLLGVAASGNKVWGDNFAKSADTISRQYQVPILHKFELSGTSKDVELFTQEVERVVTKSSAKMDPVK | not failed
18 | MKLFKELEETKEQVIKMAKLVQEAIDKATEALNKQNVELAEEVIKGDDTIDLLEVDIERRCIRMIALYQPEAGDLRMIMGIYKIVSDLERMGDEAENIAERAILLAEEPPLKPYVNINFMSEIVKEMVNDSVISFIQQDTLLAKKVIEKDDTVDELYHQLERELMTYVLEDPRNIKRAMHLSFVARHYERIADHAENVAEAAIYLSEGEIVKHQHIKEKGE | not failed
19 | MNMKKIFKRTSLLLATALIGVTATVQAQKSPQDMDRFIDALMRRMTVEEKIGQLNLPVTGEITTGQAKSSDVAKKIEQGLVGGLFNLKGVAKIRDVQKLAVENSRLGIPLLFGMDVIHGYETIFPIPLGLSCTWDMAAIEQSARIAATEASADGISWTFSPMVDISRDPRWGRVSEGSGEDPFLGGAIARAMVLGYQGKDPDDQLKRNDEIMACVKHFALYGAGEAGRDYNTVDMSRNRMFNEYMYPYEAAVRAGVGSAMASFNEVDGVPATANHWLMTDVLRKQWGFNGFVVTDFTGISEMVEHGIGNLQTVSTRALNAGVDMDMVSEGFVGTLKKSLTEGKITMKTLDAACRRILEAKYKLGLFDDPYKYCDLSRPARDIFTREHRAAARRIAAESFVLLKNEPFEGQGKKSSRPVLPLEKQGTVAVIGPLGNTRSNMPGTWSVAARLDDYPSLYEGLKEMTASRVNITYAKGSNLISDAAYEERATLFGRSLNRDNRTDKKLLDEALKVASGADVIVAALGESSEMSGESSSRTDLGIPDVQRTLLEALLKTGKPVVLTLFTGRPLTLTWEQEHVPAILNVWFGGSEAAYAIGDVLFGDVNPSGKLTMTFPKNVGQIPLFYNHKNTGRPLAEGKWFEKFRSNYLDVDNEPLYPFGYGLSYTTFRYSDIALSTPVMGQNGSTTAVVTVTNTGKRDGAEVVQLYIRDLVGSITRPVRELKGFEKVFLKAGESKTVSFKITPELLRFYDYDLNHVAEPGDFDVMIGGSSQAEKTARLTLK | failed
20 | SLRTKSWTDDLKVCNQTGVGEAINQIYKDDGRRCEGYESRDKKCLCISDNNTSLYAILSGHNGVTVAENALQEMAAELLLGQLNVCNTDEAVKELIRQSFMSVEKGYFDSINPHVATKTAIQLHLSADGMNQYEISQQFENVLQKLDSLNNALSVGSSAVLALIHRSHLYLGNIGNCRALLCKTDEHDTLTVTQLSVDHNLLNAEEAARLFRLGLMAQNFEGVPLYSTRCIGNYLGKAGYKDCNFLSSATAEPVIFEPEIVGGIQITPACRFLVLMSSGLCRALHEIFPGDASTGNRELVRMISEEFQNQSTLGGVAQSVVHRIVQAHHDTYMQLVEEHRSVTFNSRDDVTLLIRNFNYA | not failed
21 | MATVEEIEKYCRNCVSRDFVNGKGLVCKRTRELPDFDEECENFEKDEELLKMAPPKPDDFPVSMTEEELLAEENLPKGVLYASVACILGAVAWSLISVSTGLQMGYMAIGVGFLVGFAMRQGKGIRPVFGLLGAALALISCVLGDFLSIIGFAAKDYDMTFFEVLAGVDYGEIFSVMVKNVVSMSALFYGIAVYEGYKLSFRAQKHPVGGKI | failed
22 | MTVGQVLRSYPQTVQTFLELGMHCLGCPSSTMESIEGAALTHGKKPDELVEKLNKVIAANLEHHHHHH | failed
23 | MPLGSSAPPRMGGHTALAAALWPRRTDGFSAWLRMAVLIAFGSVLLALSAKVNLPLPLVPMTLQTLMVVLIGAAYGARLGAATVLAYLAEGAAGLPVFAGPVGGLAPLLGPTAGYLAGFVVAAVLVGWCADRGFDRSVAKLFAAMLAGHLAILTLGFAWLAFGLHLGLAKAWWVGVVPFLAGSLVKSALGAALLPAVRRIVDRQR | failed
24 | MDSASQDINLNSPNKGVLSDFMTDVPVDPGVVHRTPVVEGLTEGEEEELRAELAKVEEEIVTLRQVLAAKERHCGELKRRLGLSTLGELKQNLSRSWHDVQVSTAYVKTSEKLGEWNEKVTQSDLYKKTQETLSQAGQKTSAALSTMGSAISRKLGDMSSYSIRHSISMPVMRNSATFKSFEDRVGTIKSKVVGGRENGSDNLPPSPGSGDQTLPDHAPF | failed
